The target in series [1] is T1, 14-3-3ε (endogenous, in human SCC12B.2 squamous cell carcinoma cells) (human, UniProt P62258 1-255).
T1 sequence (looked up): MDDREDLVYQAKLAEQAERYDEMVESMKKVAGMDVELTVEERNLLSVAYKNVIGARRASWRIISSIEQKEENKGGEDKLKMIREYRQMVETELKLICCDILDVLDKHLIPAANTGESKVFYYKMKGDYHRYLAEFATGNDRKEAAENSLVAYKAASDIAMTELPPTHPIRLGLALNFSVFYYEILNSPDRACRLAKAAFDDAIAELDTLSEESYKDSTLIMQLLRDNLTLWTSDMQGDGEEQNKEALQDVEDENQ
Description: cell-based or functional assay.

Series [2] deals with T2, 14-3-3ε protein (purified, as used in DSF and in the SPR of the Pmb peptide) (UniProt P62258 1-255).
T2 sequence (looked up): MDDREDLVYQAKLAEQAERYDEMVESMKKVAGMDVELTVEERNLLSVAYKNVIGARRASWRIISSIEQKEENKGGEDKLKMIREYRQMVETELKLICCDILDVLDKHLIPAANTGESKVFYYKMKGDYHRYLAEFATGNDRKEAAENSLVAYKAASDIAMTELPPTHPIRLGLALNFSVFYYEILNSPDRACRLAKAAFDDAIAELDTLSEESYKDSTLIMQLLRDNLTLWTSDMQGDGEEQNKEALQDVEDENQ
Description: SPR.

The target in series [3] is T2, 14-3-3ε protein (purified, as used in …). Description: differential scanning fluorimetry (DSF), 14-3-3ε alone against 14-3-3ε with peptide. On the technique in general: DSF heats the sample and reads unfolding from a dye or from intrinsic fluorescence.
A further series addresses T3, 14-3-3ε-(His)12 protein (UniProt P62258 1-255).
T3 sequence: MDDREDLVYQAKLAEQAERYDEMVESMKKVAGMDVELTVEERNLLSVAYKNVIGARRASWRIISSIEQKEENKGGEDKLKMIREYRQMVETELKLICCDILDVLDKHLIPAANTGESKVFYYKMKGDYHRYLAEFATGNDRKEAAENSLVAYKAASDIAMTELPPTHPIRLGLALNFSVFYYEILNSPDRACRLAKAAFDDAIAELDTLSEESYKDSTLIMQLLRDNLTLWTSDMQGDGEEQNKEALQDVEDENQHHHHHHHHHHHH
Nature of the series: SPR, Biacore 8K, 14-3-3ε-(His)12 on NTA chip, peptide 1 nM-2000 nM, 25° C., mean±SD. On the procedure:
For the SPR measurements, binding affinities of the modified pT peptide for 14-3-3ε were measured by SPR using a Biacore 8K Surface plasmon resonance instrument. 100 nM 14-3-3ε-(His)12 protein in 20 mM Tris, 150 mM NaCl, 50 μM EDTA, 0.005% Tween 20, pH 7.4 buffer was immobilized to a NiCl2 activated NTA chip at a flow rate of 5 μL/min for 10 min and then washed with the running buffer for 20 min. Then peptide solutions at a concentration range of 1 nM-2000 nM were injected cycle-wise at the flow rate of 30 μL/min for 1 min, and dissociation time was set for 3 min. All SPR experiments were performed at 25° C. […] At least three replicates were done for each peptide at similar conditions, and binding affinities (KD) are presented as mean±SD.
(In general: Surface plasmon resonance follows binding to a sensor surface in real time, without labels.)

The target in series [4] is T2, 14-3-3ε protein (purified, as used in …). Description: differential scanning fluorimetry (DSF), SYPRO-Orange, 2 µM protein and 30 µM peptide. On the procedure: The binding of the modified pT peptide to 14-3-3ε was assessed using differential scanning fluorimetry (DSF) and surface plasmon resonance (SPR) measurements. The melting temperature (Tm) of 14-3-3ε-peptide complexes was determined by DSF using the BioRad CFX384 Touch realtime PCR. The protein unfolding was detected with a fluorescent SYPRO-orange dye. The assay was performed in 20 mM Tris, 150 mM NaCl, and 1 mM DTT PH7.4 buffer in a […] with a total volume of 20 μL, containing 2 and 30 μM, final concentrations of protein and peptide, respectively, and 500× dilution of the SYPRO-Orange dye stock. The excitation filter for the dye was 450-490 nm, and the emission filter was 560-580 nm. The temperature was held at 25° C. for 5 min and then increased from 25 to 95° C. at a rate of 0.3° C./ min, and fluorescence was recorded over time. Tm values were determined by plotting the first derivative of the melting curve.

Usually Kd stands for the concentration at which binding is half-saturated.

Non-standard residues stand in square brackets, D forms with d. No end group written: not given here. Pmb = 4-(di-t-butylphosphonomethyl)-3-methylbutyric acid, phosphonate replacement of phospho-Thr; pT = C[C@@H](OP(=O)(O)O)[C@H](N)C(=O)O; pS = N[C@@H](COP(=O)(O)O)C(=O)O

B1: peptide pS, Ac-Thr-Gln-Arg-Gln-Asn-Ser-(PO3^2-)-Ala-Pro-Arg-Met-Leu-Ser-Ser-Asn-NH2 (peptide)
peptide: Ac-TQRQN[pS]APRMLSSN-NH2
SMILES: CSCC[C@H](NC(=O)[C@H](CCCNC(=N)N)NC(=O)[C@@H]1CCCN1C(=O)[C@H](C)NC(=O)[C@H](COP(=O)(O)O)NC(=O)[C@H](CC(N)=O)NC(=O)[C@H](CCC(N)=O)NC(=O)[C@H](CCCNC(=N)N)NC(=O)[C@H](CCC(N)=O)NC(=O)[C@@H](NC(C)=O)[C@@H](C)O)C(=O)N[C@@H](CC(C)C)C(=O)N[C@@H](CO)C(=O)N[C@@H](CO)C(=O)N[C@@H](CC(N)=O)C(N)=O
Turning to B1, in series [1], the “IC50, dose response curve in SCC12B.2 cells (Neutral Red Cell Viability assay)” value (shortened to “IC50, dose response curve”) was determined as 29 µM. With WYWK-NH2 [targeting peptide ES1P2, Trp-Tyr-Trp-Lys-NH2], in series [1], the “IC50, dose response curve” value was 20.6 µM.

B2: first targeting peptide with a Pmb residue, Ac-Arg-Thr-Lys-Ser-Arg-Pmb-Trp-Ala-Gly-NH2 (peptide)
peptide: Ac-RTKSR[Pmb]WAG-NH2
notes: Synthetic analog of the pT peptide (CDC25A Thr507 site) in which the phospho-Thr is replaced by Pmb; also called phosphono-peptide
Molecule B2 returned a Kd in series [2] of 0.009 µM. For the same molecule, in series [3], the “increase in melting temperature (ΔTm) of 14-3-3ε” value worked out at 3.6 ° C.

B3: modified pT peptide, Ac-Arg-Thr-Lys-Ser-Arg-Thr(PO3^2-)-Trp-Ala-Tic-NH2 (peptide)
peptide: RTKSRTWAX
modifications: N-terminal acetyl; phospho-Thr at position 6; Tic residue at position 9; C-terminal amide
notes: Synthetic modification of peptide pT; also called peptide pT modified with a Tic residue
In turn, B3 showed a Kd with 14-3-3ε-(His)12 protein of 0.0309 µM. Also, the “increase in melting temperature (ΔTm) of 14-3-3ε” value in series [4] came out at 4.43 ° C.

For the molecule Ac-RTKSR[pT]WAGEKSKR-NH2 [peptide pT, Ac-Arg-Thr-Lys-Ser-Arg-Thr(PO3^2-)-Trp-Ala-Gly-Glu-Lys-Ser-Lys-Arg-NH2], the “IC50, dose response curve” value in series [1] is 22.6 µM.

(Values after patent US20250042940A1 (CREIGHTON UNIVERSITY, published 2025).)
